Test results from patent US20200157223A1.

What follows are substances tested against CD47 on the cell surface (A431, Raji, SKBR-3, NCI-H441, NK92MI-CD16a cells) (human) (UniProt Q08722) (assay: cell-based or functional assay).

Sequence of Anti-PD-L1(12A4)-Fc1-D1-Fc2 (bispecific antibody) (chain): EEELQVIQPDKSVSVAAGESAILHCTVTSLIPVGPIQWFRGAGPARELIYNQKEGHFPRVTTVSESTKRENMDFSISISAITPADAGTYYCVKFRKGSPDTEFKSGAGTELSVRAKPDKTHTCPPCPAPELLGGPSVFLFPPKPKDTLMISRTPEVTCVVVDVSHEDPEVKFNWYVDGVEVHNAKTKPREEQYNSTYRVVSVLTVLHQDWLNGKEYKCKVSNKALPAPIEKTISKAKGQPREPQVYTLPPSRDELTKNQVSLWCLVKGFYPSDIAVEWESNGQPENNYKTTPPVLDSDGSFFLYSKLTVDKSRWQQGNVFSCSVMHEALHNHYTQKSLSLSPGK
Sequence of Anti-PD-L1(12A4)-Fc1-D1-D2-Fc2 (bispecific antibody) (chain): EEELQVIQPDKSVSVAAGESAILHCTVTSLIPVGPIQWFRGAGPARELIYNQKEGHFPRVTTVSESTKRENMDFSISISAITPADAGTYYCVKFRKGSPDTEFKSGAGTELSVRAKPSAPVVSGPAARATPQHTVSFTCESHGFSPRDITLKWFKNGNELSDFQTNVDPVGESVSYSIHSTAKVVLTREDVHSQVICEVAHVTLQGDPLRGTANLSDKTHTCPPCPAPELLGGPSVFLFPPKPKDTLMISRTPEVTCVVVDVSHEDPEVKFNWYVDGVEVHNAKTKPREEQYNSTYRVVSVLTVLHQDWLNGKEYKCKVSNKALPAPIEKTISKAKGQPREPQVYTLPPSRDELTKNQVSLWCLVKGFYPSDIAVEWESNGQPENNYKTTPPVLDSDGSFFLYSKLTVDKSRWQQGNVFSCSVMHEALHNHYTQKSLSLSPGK
Sequence of Anti-PD-L1(12A4)-Fc1-D1-D2-D3-Fc2 (bispecific antibody) (chain): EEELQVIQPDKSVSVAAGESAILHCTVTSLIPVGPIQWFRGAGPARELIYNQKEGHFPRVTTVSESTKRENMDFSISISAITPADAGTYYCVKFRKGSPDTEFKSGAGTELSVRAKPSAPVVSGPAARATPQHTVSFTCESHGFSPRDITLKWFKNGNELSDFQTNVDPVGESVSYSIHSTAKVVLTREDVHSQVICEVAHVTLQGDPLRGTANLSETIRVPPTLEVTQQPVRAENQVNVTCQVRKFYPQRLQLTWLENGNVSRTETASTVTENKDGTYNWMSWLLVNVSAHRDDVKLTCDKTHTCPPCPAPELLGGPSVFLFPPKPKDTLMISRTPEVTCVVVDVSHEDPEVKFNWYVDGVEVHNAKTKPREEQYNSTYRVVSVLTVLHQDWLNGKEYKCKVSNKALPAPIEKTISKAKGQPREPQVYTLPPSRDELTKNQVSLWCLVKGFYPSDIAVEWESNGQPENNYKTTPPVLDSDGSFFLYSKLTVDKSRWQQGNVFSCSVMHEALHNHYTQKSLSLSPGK

Substance	toxic side effects caused by NK cells (ADCC on NK92MI-CD16a cells), reduction against the D1^m proteins [fold]
Anti-PD-L1(12A4)-Fc1-D1-Fc2 (bispecific antibody)	> 1000
Anti-PD-L1(12A4)-Fc1-D1-D2-D3-Fc2 (bispecific antibody)	> 1000
Anti-PD-L1(12A4)-Fc1-D1-D2-Fc2 (bispecific antibody)	> 1000
